Measured values published in patent US6025158A, “Nucleic acids encoding humanized anti-IL-8 monoclonal antibodies” (Genentech, Inc., dated 2000).
Like-named read-outs stand apart in the source and are kept apart here.

Columns and labels:
[1] = biological target: T1, recombinant human IL-8, (ser-IL-8)72 (human, UniProt P10145); assay: inhibition of 125I-IL-8 binding to human neutrophils
[2] = biological target: T1, recombinant human IL-8, (ser-IL-8)72; assay: competitive binding RIP, Scatchard
[3] = biological target: T1, recombinant human IL-8, (ser-IL-8)72
[4] = biological target: T1, recombinant human IL-8, (ser-IL-8)72; remark: listed apart in the source
[5] = biological target: human monomeric IL-8 (human)
rhesus IL-8 = rhesus IL-8 (rhesus, UniProt P67813); assay: cell-based or functional assay
[6] = biological target: T1, recombinant human IL-8, (ser-IL-8)72; remark: listed apart in the source
[7] = biological target: T1, recombinant human IL-8, (ser-IL-8)72; assay: KinExA, equilibrium, human IL-8
Method: The beads were resuspended in assay buffer (0.1% bovine serum albumin in PBS) to a final volume of 30 ml.
The equilibrium constant (Kd) was calculated using the software provided by Sapidyne Instruments Inc.

rabbit IL-8 = biological target: T2, rabbit IL-8 (rabbit, UniProt P19874); assay: cell-based or functional assay
T2 sequence: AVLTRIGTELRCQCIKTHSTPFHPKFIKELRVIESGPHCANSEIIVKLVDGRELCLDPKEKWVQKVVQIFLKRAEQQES

[8] = biological target: human monomeric IL-8 (human); remark: listed apart in the source
[9] = biological target: T1, recombinant human IL-8, (ser-IL-8)72; remark: listed apart in the source
[10] = biological target: human monomeric IL-8 (human); remark: listed apart in the source
[11] = biological target: T1, recombinant human IL-8, (ser-IL-8)72; assay: inhibition of 125I-IL-8 binding to human neutrophils; remark: listed apart in the source
[12] = biological target: T1, recombinant human IL-8, (ser-IL-8)72; assay: 125I-IL-8 neutrophil competition; reference by Table 4: chimeric F(ab)
[13] = biological target: T1, recombinant human IL-8, (ser-IL-8)72; assay: inhibition of 125I-IL-8 binding to human neutrophils; remark: listed apart in the source
[14] = tested on: neutrophils in bronchoalveolar lavage (BAL) fluid; assay: neutrophils in bronchoalveolar lavage (BAL) fluid of animals infected with bacteria; assay type: in vivo; conditions: infected with Streptococcus pneumoniae, Escherichia coli, or Pseudomonas aeruginosa; versus isotype control mouse IgG
Excerpt: FIG. 12 is a graph depicting the effect of anti-IL-8 monoclonal antibody treatment on the number of neutrophils in bronchoalveolar lavage (BAL) fluid in animals infected with Streptococcus pneumoniae, Escherichia coli, or Pseudomonas aeruginosa.

[15] = biological target: IL-8 binding to IL-8 receptors on human neutrophils (Homo sapiens, UniProt P10145); assay: inhibition of 125I-IL-8 binding to human neutrophils (competition binding assay); conditions: read-out: average IC50, inhibition of 125I-IL-8 binding to human neutrophils; characterization of 6G4V11N35A Fab and F(ab')2 (FIGS. 33, 38)

rhu4D5 F(ab) (Fab)
IC50 [1]: > 200000 nM

B1: monoclonal antibody 5.12.14 (antibody, V domains shown)
VH: EVQLVESGGGLVPPGGSLKLSCAASGFIFSSYGMSWVRQTPGKSLELVATINNNGDSTYYPDSVKGRFTISRDNAKNTLYLQMSSLKSEDTAMFYCARALISSATWFGYWGQGTLVTVSA
VL: DIVMTQSQKFMSTSVGDRVSVTCKASQNVGTNVAWYQQKPGQSPKALIYSSSYRYSGVPDRFTGSGSGTDFTLTISHVQSEDLADYFCQQYNIYPLTFGPGTKLELKR
Kd [2]: 0.3 nM
neutrophil chemotaxis induced by IL-8 (Boyden chamber) [3]: 70%

B2: humanized 6G425 F(ab)-9 (Fab, V domains shown)
VH: EVQLVQSGGGLVQPGGSLRLSCAASGYSFSSHYMHWVRQAPGKGLEWVGYIDPSNGETTYNQKFKGRFTLSRDNSKNTAYLQMNSLRAEDTAVYYCARGDYRYNGDWFFDVWGQGTLVTVSS
VL: DIQMTQSPSSLSASVGDRVTITCRSSQSLVHGIGNTYLHWYQQKPGKAPKLLIYKVSNRFSGVPSRFSGSGSGTDFTLTISSLQPEDFATYYCSQSTHVPLTFGQGTKVEIKR
IC50, IL-8 mediated neutrophil chemotaxis [4]: 12 nM
IC50, IL-8 mediated neutrophil chemotaxis [5]: 15 nM
IC50, IL-8 mediated neutrophil chemotaxis (rhesus IL-8): ~22 nM

B3: 6G4V11N35A Fab (Fab, V domains shown)
VH: EVQLVQSGGGLVQPGGSLRLSCAASGYSFSSHYMHWVRQAPGKGLEWVGYIDPSNGETTYNQKFKGRFTLSRDNSKNTAYLQMNSLRAEDTAVYYCARGDYRYNGDWFFDVWGQGTLVTVSS
VL: DIQMTQSPSSLSASVGDRVTITCRSSQSLVHGIGATYLHWYQQKPGKAPKLLIYKVSNRFSGVPSRFSGSGSGTDFTLTISSLQPEDFATYYCSQSTHVPLTFGQGTKVEIKR
IC50, human IL-8 mediated neutrophil chemotaxis [6]: 2.7 nM
Kd [7]: ~0.114 nM
IC50, IL-8 mediated neutrophil chemotaxis (rabbit IL-8): 5 nM
IC50, IL-8 mediated neutrophil chemotaxis [8]: 1 nM
IC50, IL-8 mediated PMN chemotaxis [9]: 0.8 nM

B4: 6G4V11N35A F(ab')2 leucine zipper (antibody, V domains shown)
VH: EVQLVQSGGGLVQPGGSLRLSCAASGYSFSSHYMHWVRQAPGKGLEWVGYIDPSNGETTYNQKFKGRFTLSRDNSKNTAYLQMNSLRAEDTAVYYCARGDYRYNGDWFFDVWGQGTLVTVSS
VL: DIQMTQSPSSLSASVGDRVTITCRSSQSLVHGIGATYLHWYQQKPGKAPKLLIYKVSNRFSGVPSRFSGSGSGTDFTLTISSLQPEDFATYYCSQSTHVPLTFGQGTKVEIKR
IC50, human IL-8 mediated neutrophil chemotaxis [6]: 1.5 nM
IC50, IL-8 mediated neutrophil chemotaxis [10]: 1 nM
IC50, IL-8 mediated neutrophil chemotaxis (rabbit IL-8): 4 nM

B5: humanized 6G425 F(ab)-1 (Fab, V domains shown)
VH: EVQLVESGGGLVQPGGSLRLSCAASGYSFSSHYMHWVRQAPGKGLEWVGYIDPSNGETTYNQKFKGRFTISRDNSKNTLYLQMNSLRAEDTAVYYCAARGDYRYNGDWFFDVWGQGT
VL: DIQMTQSPSSLSASVGDRVTITCRSSQSLVHGIGNTYLHWYQQKPGKAPKLLIYYKVSNRFSGVPSRFSGSGSGTDFTLTISSLQPEDFATYYCSQSTHVPLTFGQGTKVEIKR
IC50 [11]: 63 nM
fold reduction in binding affinity [12]: 5.5 fold
IC50 [13]: 40 nM

B6: 6G4.2.5: murine anti-rabbit IL-8 monoclonal antibody, IgG2a, hybridoma ATCC HB 11722 (antibody, V domains shown)
VL: DIVMTQTPLSLPVSLGDQASISCRSSQSLVHGIGNTYLHWYLQKPGQSPKLLIYYKVSNRFSGVPDRFSDSGSGTDFTLRISRVEAEDLGLYFCSQSTHVPLTFGAGTKLELKR
VH: EIQLQQSGPELMKPGASVKISCKASGYSFSSHYMHWVKQSHGKSLEWIGYIDPSNGETTYNQKFKGKATLTVDTSSSTANVHLSSLTSDDSAVYFCAARGDYRYNGDWFFDVWGAGT
number of neutrophils in BAL fluid [14]: significantly reduced the number of neutrophils present in the BAL fluid
IC50 [15]: 5 nM
